The supplement of paper PMC10567573

B1: SEC22B (parent)
chain: AKQLFRKLNEQSPTRCTLEAGAMT
B2: C1orf137 (parent)
chain: RQHHHQSSFPGSLPQETNLTLKVC

Variants of: B1
Test: protein stability index of a GFP-peptide fusion (GPS, HEK-293T) (PSI 1-6); higher = more stable
Conditions: c terminus: a fixed tail appended
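Further: lentivirally expressed fusions sorted by FACS into six bins by GFP to DsRed ratio, PSI derived from sequencing read proportions per bin multiplied by bin number.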

Variant | protein stability index
AKYLFRKLNEQSPTRCTLEAGAMT | 1.55
AKCLFRKLNEQSPTRCTLEAGAMT | 2.39
AKNLFRKLNEQSPTRCTLEAGAMT | 3.08
AKQLFRKLNEQSPTRCALEAGAMT | 1.81
AKQLFRKLNEQSPTRCLLEAGAMT | 2.13
AKQLFRKLNEQSPTRCYLEAGAMT | 1.61
AKQLFRKLNEQSPTRCTKEAGAMT | 2.7
AKQLFRKLNEQSPTRCTTEAGAMT | 2.84
AKQLFRKLNEQSPTRCTREAGAMT | 2.46
AKQLFRKLNEQSPTRCTSEAGAMT | 3.26
AKQLFRKLNEQSPTRCTWEAGAMT | 1.94
AKQLFRKWNEQSPTRCTLEAGAMT | 3.19
AKQLFRKTNEQSPTRCTLEAGAMT | 2.89
AKQLFRKVNEQSPTRCTLEAGAMT | 3.09
AKQRFRKLNEQSPTRCTLEAGAMT | 2.96
AKQPFRKLNEQSPTRCTLEAGAMT | 3.07
AKQEFRKLNEQSPTRCTLEAGAMT | 3.62
AKQFFRKLNEQSPTRCTLEAGAMT | 1.89
AKQTFRKLNEQSPTRCTLEAGAMT | 3.27
AKQLFRKLNEQSETRCTLEAGAMT | 2.81
AKQLFRKLNEQSQTRCTLEAGAMT | 1.98

Variant | protein stability index
AKQLFRKLNEQSTTRCTLEAGAMT | 2.14
AKQLFRKLNEQSNTRCTLEAGAMT | 1.86
AKQLFRKLFEQSPTRCTLEAGAMT | 2.57
AKQLFRKLDEQSPTRCTLEAGAMT | 2.98
AKQLFRKLGEQSPTRCTLEAGAMT | 2.47
AKQLFRKLNFQSPTRCTLEAGAMT | 2.99
AKQLFRKLNTQSPTRCTLEAGAMT | 2.31
AKQLFRKLNIQSPTRCTLEAGAMT | 2.7
AKQLFRKLNEQSPTRCTLEAFAMT | 2.42
AKQLFRKLNEQSPTRDTLEAGAMT | 3.93
AKQLFRKLNEQSPTRNTLEAGAMT | 3.74
AKQLFRKLNEQSPTRCTLEAGMMT | 2.07
AKQLFRKLNEQSPTRCTLEAGHMT | 1.82
AKQLFRKLNEQSPTRCTLEAGPMT | 2.25
AKQLFRKLNEQSPTRCTLEAGFMT | 1.49
AKQLFRKLNEQSPTRCTLEAGVMT | 1.89
AKQLFRKLNEQSPTRCTLEAGGMT | 2.35
AKQLFRKLNEQSPTRCTLEAGDMT | 2.33
AKQLFRKLNERSPTRCTLEAGAMT | 1.41
AKQLFNKLNEQSPTRCTLEAGAMT | 2.05
AKQLFQKLNEQSPTRCTLEAGAMT | 2.67

Variant | protein stability index
AKQLFAKLNEQSPTRCTLEAGAMT | 2.14
AKQLFGKLNEQSPTRCTLEAGAMT | 2.36
AKQLFRDLNEQSPTRCTLEAGAMT | 2.7
AKQLFRVLNEQSPTRCTLEAGAMT | 2.47
AKQLFRILNEQSPTRCTLEAGAMT | 1.81
AKQLFRGLNEQSPTRCTLEAGAMT | 2.24
AKQLFRQLNEQSPTRCTLEAGAMT | 2.25
AKQLFRHLNEQSPTRCTLEAGAMT | 2.64
AKQLFRSLNEQSPTRCTLEAGAMT | 2.31
AKQLFRELNEQSPTRCTLEAGAMT | 2.89
AKQLRRKLNEQSPTRCTLEAGAMT | 3.22
AKQLPRKLNEQSPTRCTLEAGAMT | 3.46
AKQLWRKLNEQSPTRCTLEAGAMT | 1.94
AKQLTRKLNEQSPTRCTLEAGAMT | 2.75
AKQLFRKLNEQSPTRCTLELGAMT | 2.27
AKQLFRKLNEQSPTRCTLEYGAMT | 2.01
AKQLFRKLNEQSPTRCTLEVGAMT | 2.49
AKQLFRKLNEQSPTRCTLEHGAMT | 2.47
AKQLFRKLNEQSPTRCTLEMGAMT | 3.4
AKQLFRKLNEQSPSRCTLEAGAMT | 1.89
AKQLFRKLNEQSPNRCTLEAGAMT | 1.98

Variant | protein stability index
AVQLFRKLNEQSPTRCTLEAGAMT | 1.54
ASQLFRKLNEQSPTRCTLEAGAMT | 2.4
AKQLFRKLNEQSPTRCTLEAGAMC | 2.26
AKQLFRKLNEQSPTRCTLEAGAMK | 2.29
AKQLFRKLNEQSPTRCTLEAGAMN | 1.98
AKQLFRKLNEQSPTRCTLEAGAMM | 2.59
AKQLFRKLNEQSPTRCTLKAGAMT | 2.47
AKQLFRKLNEQSPTLCTLEAGAMT | 3.03
AKQLFRKLNEQSPTFCTLEAGAMT | 2.41
AKQLFRKLNEQSPTACTLEAGAMT | 3.03
MKQLFRKLNEQSPTRCTLEAGAMT | 1.6
PKQLFRKLNEQSPTRCTLEAGAMT | 2.52
EKQLFRKLNEQSPTRCTLEAGAMT | 3.12
YKQLFRKLNEQSPTRCTLEAGAMT | 1.89
AKQLFRKLNEQSPTRCTLEAGART | 2.26
AKQLFRKLNEQMPTRCTLEAGAMT | 2.37
AKQLFRKLNEQCPTRCTLEAGAMT | 2.87
AKQLFRKLNEQRPTRCTLEAGAMT | 1.4

Variants of: B2
Test: as above
Conditions: c terminus: a fixed tail appended

Variant | protein stability index
RQHHHQSSFPGSLPQETNLTCKVC | 3.97
RQHHHQSSFPGSLPQETNLTHKVC | 3.76
RQHHHQSSFPGSLPQETNLTQKVC | 3.95
RQHHHQSSFPGSLPQETNLTGKVC | 4.36
RQHHHQSSFPGSLPQETNLTRKVC | 3.95
RQHHHQSSFPGSLPQETNLTIKVC | 2.41
RQHHHQSSFPGSLPQETNLTAKVC | 4
RQHHHQSSFPGSLPQETNLTWKVC | 3.08
RQHHHQSSFPGSLPQETNLTSKVC | 4.02
RQHHHQSSFPGSLPQETNLTYKVC | 3.96
RQHHHQSSFPGSLPQETNLTTKVC | 4.54
RQHHHQSSFPGSLPQETNLTFKVC | 2.88
RQHHHQSSFPGSLPQETNLTVKVC | 3.23
